Test results taken from paper PMC9200344, “The Caenorhabditis elegans TDRD5/7-like protein, LOTR-1, interacts with the helicase ZNFX-1 to balance epigenetic signals in the germline” (PLoS Genetics, 2022).

B1: MIP-2 (natural protein, C. elegans (endogenous in young adults), UniProt P90898 1-666, looked up)
chain: MSEEEGKEKMNKMRKRIERDAYSVLLSFKDGASPKQVEQRMDDTLGYDYCSKYHLAGVYDMAQILIEHPDVRQTYEGKFKIIANEDNQDLVDLISKQSDGPRNKGSSKRGRRSSSSAGYHQRSMFGGELSRSPRYSSCRPRSYASFGKAASKKLFQNFGQPSRPFSVLSSSKASTSSAIQSFGTGNHDSTFGKSSGSNANPTNPPVAPSIQRPLMRPSTASSIPIFILRSGSRSPVKKHVQIKTSSSSSHMPTITEFMNNTKRMMVKELPASVHLSEMTELYEREFGAPVDPLLLFSKSWMLMAKTTFKEFLQVIDGEVSLREKWLADQGTTTKSVLELPSRKVEATTVAQLPISQGFRYQDPNSKPKADLASISKSLDGLTLNARKSKKEASKSDMMPFIPKNHREIVTKRFGNAPSSVKADSIVERVQSTSCIFGRQSVPSVLSISSSSTVVPEKLNEEGLKYDSKELLQLKALKKTDVMLVNVYASLKAFPQMIDARAKALMQQNLEVQRNMASRASLNVVAQVQRPSSSINLQRVRVNPNQCVKKVVPVRTLGQALAEVRRQREQVEQEAFNEQPEPSPSPRLGMGSSSHAASNVSDDGWGAQVVQKVEKSPPKPFTVLLPPMSKGAGVKIRPRSRVVLCHSSASSFPPSLNSDFSPNISQA
notes: MIP-2, LOTUS-domain protein, C. elegans; source: endogenous, C. elegans young adult lysate

Columns and labels:
[1] = target: 3xFLAG::GFP::LOTR-1 with e+mLOTUS deletion (sam113) (C. elegans (endogenous in embryos and young adults)); experiment: affinity purification with mass spectrometry; anti-FLAG (M2) IP of 3xFLAG::GFP::LOTR-1 (wild type, LOTUS or Tudor deletion) on Protein G magnetic beads from embryo and young adult extracts, 4°C, washes with 300 mM NaCl; quantitative MS against the lotr-1 deletion expressing 3xFLAG::GFP alone
[2] = target: 3xFLAG::GFP::LOTR-1 with Tudor deletion (sam102) (C. elegans (endogenous in embryos and young adults)); experiment: as above
3xFLAG::GFP::ZNFX-1 = target: T1, 3xFLAG::GFP::ZNFX-1 (C. elegans (endogenous in embryos and …, UniProt E9P860 1-2443)); experiment: affinity purification with mass spectrometry; anti-FLAG IP of 3xFLAG::GFP::ZNFX-1 from embryos and adults of lotr-1(xf58) mutants (in-frame deletion that removes most of the LOTUS domain); quantitative MS compared with the wild-type background; details: partners not purified
T1 construct: ZNFX-1, Z-granule helicase, C. elegans; also called FLAG-tagged ZNFX-1; source: tagged ZNFX-1 expressed in worms, C. elegans embryo and young adult lysate
T1 sequence (E9P860 whole entry, the tested form may be a part): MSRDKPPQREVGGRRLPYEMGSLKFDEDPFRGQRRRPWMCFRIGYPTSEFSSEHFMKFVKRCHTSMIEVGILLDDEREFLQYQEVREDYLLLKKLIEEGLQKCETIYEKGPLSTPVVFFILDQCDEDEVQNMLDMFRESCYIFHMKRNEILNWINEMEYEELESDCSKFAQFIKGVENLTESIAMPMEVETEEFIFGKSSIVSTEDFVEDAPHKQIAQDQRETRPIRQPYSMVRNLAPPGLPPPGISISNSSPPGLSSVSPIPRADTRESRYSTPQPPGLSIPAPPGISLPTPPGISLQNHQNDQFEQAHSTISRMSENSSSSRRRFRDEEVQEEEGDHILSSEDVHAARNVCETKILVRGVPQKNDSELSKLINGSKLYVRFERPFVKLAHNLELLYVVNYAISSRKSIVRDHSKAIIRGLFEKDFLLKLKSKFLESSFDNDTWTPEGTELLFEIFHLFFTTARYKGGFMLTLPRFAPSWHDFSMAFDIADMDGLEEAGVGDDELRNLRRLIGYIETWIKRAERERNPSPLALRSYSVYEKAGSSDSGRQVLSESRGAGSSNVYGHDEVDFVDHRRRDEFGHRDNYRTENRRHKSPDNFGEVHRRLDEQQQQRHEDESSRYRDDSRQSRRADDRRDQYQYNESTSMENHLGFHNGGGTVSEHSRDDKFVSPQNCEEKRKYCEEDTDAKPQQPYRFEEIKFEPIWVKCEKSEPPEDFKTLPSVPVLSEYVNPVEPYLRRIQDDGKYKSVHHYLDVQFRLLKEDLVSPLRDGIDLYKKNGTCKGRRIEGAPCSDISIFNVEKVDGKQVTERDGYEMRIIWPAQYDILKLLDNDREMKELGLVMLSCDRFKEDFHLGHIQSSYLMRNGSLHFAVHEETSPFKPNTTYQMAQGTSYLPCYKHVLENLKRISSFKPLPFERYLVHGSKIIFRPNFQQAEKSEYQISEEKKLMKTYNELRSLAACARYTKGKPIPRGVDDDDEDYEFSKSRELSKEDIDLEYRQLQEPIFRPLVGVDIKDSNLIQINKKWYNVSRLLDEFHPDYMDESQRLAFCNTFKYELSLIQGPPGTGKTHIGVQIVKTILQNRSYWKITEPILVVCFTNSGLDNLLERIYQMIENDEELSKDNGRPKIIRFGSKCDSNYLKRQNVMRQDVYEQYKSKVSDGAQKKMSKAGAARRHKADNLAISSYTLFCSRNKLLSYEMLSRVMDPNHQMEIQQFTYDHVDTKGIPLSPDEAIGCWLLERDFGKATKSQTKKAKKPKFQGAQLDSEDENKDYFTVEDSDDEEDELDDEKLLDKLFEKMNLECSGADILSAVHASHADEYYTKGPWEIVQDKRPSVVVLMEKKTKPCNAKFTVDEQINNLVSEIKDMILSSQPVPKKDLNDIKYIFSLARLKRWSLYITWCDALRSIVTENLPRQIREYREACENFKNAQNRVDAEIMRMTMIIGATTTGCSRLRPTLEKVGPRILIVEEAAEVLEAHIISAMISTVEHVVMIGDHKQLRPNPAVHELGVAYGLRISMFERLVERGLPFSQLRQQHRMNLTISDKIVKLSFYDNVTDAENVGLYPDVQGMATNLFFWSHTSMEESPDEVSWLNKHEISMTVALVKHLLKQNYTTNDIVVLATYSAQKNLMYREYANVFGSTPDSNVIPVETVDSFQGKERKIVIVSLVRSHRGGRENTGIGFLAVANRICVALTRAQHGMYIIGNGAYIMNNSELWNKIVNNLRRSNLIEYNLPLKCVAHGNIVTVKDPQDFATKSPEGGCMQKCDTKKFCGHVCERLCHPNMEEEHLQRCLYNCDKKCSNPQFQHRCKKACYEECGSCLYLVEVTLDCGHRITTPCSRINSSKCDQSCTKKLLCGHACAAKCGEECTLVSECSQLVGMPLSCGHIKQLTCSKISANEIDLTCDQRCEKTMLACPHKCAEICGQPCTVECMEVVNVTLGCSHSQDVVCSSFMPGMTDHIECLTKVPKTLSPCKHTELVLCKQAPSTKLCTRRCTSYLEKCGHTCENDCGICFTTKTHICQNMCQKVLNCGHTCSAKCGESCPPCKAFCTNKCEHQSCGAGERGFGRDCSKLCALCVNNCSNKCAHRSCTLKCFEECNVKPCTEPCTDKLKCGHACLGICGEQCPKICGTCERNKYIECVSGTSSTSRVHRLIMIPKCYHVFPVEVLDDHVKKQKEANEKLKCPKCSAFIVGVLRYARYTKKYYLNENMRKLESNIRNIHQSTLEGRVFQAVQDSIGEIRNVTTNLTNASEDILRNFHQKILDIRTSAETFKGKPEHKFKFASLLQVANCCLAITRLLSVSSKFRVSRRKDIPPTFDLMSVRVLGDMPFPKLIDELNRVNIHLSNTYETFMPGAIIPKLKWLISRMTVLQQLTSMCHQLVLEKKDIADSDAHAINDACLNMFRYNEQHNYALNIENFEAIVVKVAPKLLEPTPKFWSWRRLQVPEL

Molecule	fold change of association against wild-type LOTR-1 (embryos) [1] [fold]	percent reduction of association against wild-type LOTR-1 (embryos) [2] [%]	fold change of association in lotr-1(xf58) mutant adults against wild type (3xFLAG::GFP::ZNFX-1) [fold]
MEG-3 (natural protein)	2	90	
B1			2
